Drawing on US20250011363A1, “OPTIMIZED SHORTENED PEPTIDE THAT BINDS TO ACETYLCHOLINE RECEPTOR, AND USE THEREOF” (SKINMED CO., LTD., priority 2021, published 2025), this text covers Binding affinity (RU) for 51 molecules.

This assay deals with acetylcholine receptor. The assay is described as follows: SPR, receptor immobilized on CM5 chip, peptide 10 uM. In general terms: In SPR one partner is held on a chip, and binding of the other changes the refractive index at the surface.

B1: 6mer-1-901 (peptide)
peptide: RKPNGR
For B1, the Binding affinity (RU) is 35 RU.

B2: 6mer-1-896 (peptide)
peptide: KRDWIK
In turn, B2 showed a Binding affinity (RU) of 11 RU.

B3: 6mer-1-909 (peptide)
peptide: RKFCMR
In turn, B3 showed a Binding affinity (RU) of 33 RU.

B4: 6mer-1-906 (peptide)
peptide: KKINGK
On to B4, for which the Binding affinity (RU) turned out to be 30 RU.

B5: 6mer-1-912 (peptide)
peptide: KKETFR
B5: the Binding affinity (RU) is 33 RU.

B6: 6mer-1-888 (peptide)
peptide: KKTANK
B6: the Binding affinity (RU) came out at 33 RU.

B7: 6mer-1-907 (peptide)
peptide: RKPAWR
For the molecule B7, the Binding affinity (RU) turned out to be 42 RU.

B8: 6mer-1-895 (peptide)
peptide: KKDSKK
For the molecule B8, the Binding affinity (RU) came out at 28 RU.

B9: 6mer-1-916 (peptide)
peptide: RRNAAK
Take B9: the Binding affinity (RU) was determined as 33 RU.

B10: 6mer-1-892 (peptide)
peptide: RKTEKR
Molecule B10 had a Binding affinity (RU) of 20 RU.

B11: 6mer-1-923 (peptide)
peptide: RRASDR
In turn, B11 registered a Binding affinity (RU) of 43 RU.

B12: 6mer-1-887 (peptide)
peptide: KRINHR
B12: the Binding affinity (RU) came out at 30 RU.

B13: 6mer-1-915 (peptide)
peptide: RKDTWK
Consider B13, for which the Binding affinity (RU) is 27 RU.

B14: 6mer-1-914 (peptide)
peptide: RRKCVR
On to B14, for which the Binding affinity (RU) is 39 RU.

B15: 6mer-1-927 (peptide)
peptide: KRESHR
In turn, B15 displayed a Binding affinity (RU) of 37 RU.

B16: 6mer-1-924 (peptide)
peptide: RKFNWR
Consider B16, for which the Binding affinity (RU) worked out at 29 RU.

B17: 6mer-1-928 (peptide)
peptide: KRYCPK
In the case of B17, the Binding affinity (RU) came out at 30 RU.

B18: 6mer-1-900 (peptide)
peptide: RRDTGR
B18 registered a Binding affinity (RU) of 24 RU.

B19: 6mer-1-899 (peptide)
peptide: KRMKWK
For B19, the Binding affinity (RU) was found to be 31 RU.

B20: 6mer-1-889 (peptide)
peptide: KRIMEK
As for B20, the Binding affinity (RU) came to 25 RU.

B21: 6mer-1-905 (peptide)
peptide: RRICER
B21 gave a Binding affinity (RU) of 36 RU.

B22: 6mer-1-881 (peptide)
peptide: KKHMER
B22 returned a Binding affinity (RU) of 20 RU.

B23: 6mer-1-921 (peptide)
peptide: RKFWHR
In the case of B23, the Binding affinity (RU) is 36 RU.

B24: 6mer-1-897 (peptide)
peptide: RRPSIK
B24 displayed a Binding affinity (RU) of 24 RU.

B25: 6mer-1-919 (peptide)
peptide: RKDHIK
Take B25: the Binding affinity (RU) amounted to 26 RU.

B26: 6mer-1-879 (peptide)
peptide: RRYNNR
B26: the Binding affinity (RU) was 27 RU.

B27: 6mer-1-908 (peptide)
peptide: KKFMVR
B27 gave a Binding affinity (RU) of 37 RU.

B28: 6mer-1-885 (peptide)
peptide: RRKTPR
The molecule B28 registered a Binding affinity (RU) of 17 RU.

B29: 6mer-1-882 (peptide)
peptide: KKPAMR
As to B29, the Binding affinity (RU) was determined as 25 RU.

B30: 6mer-1-904 (peptide)
peptide: KKDTKR
B30 returned a Binding affinity (RU) of 31 RU.

B31: 6mer-1-925 (peptide)
peptide: KKAMHR
For B31, the Binding affinity (RU) amounted to 42 RU.

B32: 6mer-1-929 (peptide)
peptide: RRCDHK
As for B32, the Binding affinity (RU) was found to be 25 RU.

B33: 6mer-1-890 (peptide)
peptide: RRTSNK
B33 gave a Binding affinity (RU) of 18 RU.

B34: 6mer-1-918 (peptide)
peptide: RRESMR
Molecule B34 showed a Binding affinity (RU) of 33 RU.

B35: 6mer-1-894 (peptide)
peptide: RKCWWR
For B35, the Binding affinity (RU) turned out to be 18 RU.

B36: 6mer-1-883 (peptide)
peptide: KKIDDK
Molecule B36 gave a Binding affinity (RU) of 21 RU.

B37: 6mer-1-898 (peptide)
peptide: RKATKR
Molecule B37 came in with a Binding affinity (RU) of 31 RU.

B38: 6mer-1-920 (peptide)
peptide: RRPAMR
In the case of B38, the Binding affinity (RU) was found to be 40 RU.

B39: 6mer-1-917 (peptide)
peptide: KRADDK
In turn, B39 had a Binding affinity (RU) of 27 RU.

B40: 6mer-1-880 (peptide)
peptide: KRPMDK
Molecule B40 registered a Binding affinity (RU) of 21 RU.

B41: 6mer-1-910 (peptide)
peptide: KRPTIR
The molecule B41 showed a Binding affinity (RU) of 42 RU.

B42: 6mer-1-902 (peptide)
peptide: RRDKMK
Molecule B42 yielded a Binding affinity (RU) of 39 RU.

B43: 6mer-1-922 (peptide)
peptide: RRDWGR
Consider B43, for which the Binding affinity (RU) was found to be 34 RU.

B44: 6mer-1-891 (peptide)
peptide: RKMAFR
For the molecule B44, the Binding affinity (RU) turned out to be 13 RU.

B45: 6mer-1-903 (peptide)
peptide: KKHKPR
The molecule B45 gave a Binding affinity (RU) of 37 RU.

B46: 6mer-1-893 (peptide)
peptide: RRIPHR
For the molecule B46, the Binding affinity (RU) turned out to be 22 RU.

B47: 6mer-1-886 (peptide)
peptide: RKFSNK
The molecule B47 gave a Binding affinity (RU) of 17 RU.

B48: 6mer-1-926 (peptide)
peptide: KRESDR
With B48, the Binding affinity (RU) turned out to be 40 RU.

B49: 6mer-1-913 (peptide)
peptide: KRFWWK
B49: the Binding affinity (RU) is 27 RU.

B50: 6mer-1-884 (peptide)
peptide: KRYTKR
On to B50, for which the Binding affinity (RU) was 26 RU.

B51: 6mer-1-911 (peptide)
peptide: KRCAAR
For B51, the Binding affinity (RU) was 28 RU.
